US12697350B2, “Methods and compositions for treating a premature termination codon-mediated disorder” (Tevard Biosciences, Inc., priority 2019, dated 2026)

Tested on: EGFP-R96X-TGA reporter
Assay: 100 nt 5′ leader sequence library with ArgTCA suppressor tRNA #115, EGFP-R96X-TGA reporter, Flp-In-293 cells (FIGS. 28, 29, 32)
Format: cell-based, human
Excerpt: FIG. 27 is a schematic representation of the constructs used to test the impact of a 5′ leader sequence on the read-through of a premature termination codon (PTC) by a suppressor tRNA. Constructs contain (i) a 100 bp 5′ leader sequence derived from genomic DNA located upstream of tRNA genes that are highly expressed in HEK293 cells, (ii) a single copy of either the ArgTCA suppressor tRNA #115 (SEQ ID NO: 18) or the GlnTTA suppressor tRNA #163 (SEQ ID NO: 45), and (iii) an RNA polymerase III termination signal (“Term”).
FIG. 28 is a graph depicting the readthrough activity of the indicated ArgTCA suppressor tRNA expression constructs as measured by flow cytometry in Flp-In-293 cells at ~24 hours post transfection. […]
FIG. 29 is a graph depicting the readthrough activity of the indicated ArgTCA suppressor tRNA expression constructs as measured by flow cytometry in Flp-In-293 cells at ~24 hours post transfection. […]
The leader sequences in combination with the ArgTCA suppressor tRNA #115 (SEQ ID NO: 18) or the GlnTTA suppressor tRNA #163 (SEQ ID NO: 45) were tested for PTC readthrough activity by flow cytometry in cell lines co-transfected with an EGFP-R96X-TGA reporter (SEQ ID NO: 31) for ArgTCA constructs or an EGFP-Q69X-TAA reporter (SEQ ID NO: 175) for GlnTTA constructs.

B1: tRNA-Arg-TCT-2-1-TCA-SUP_no intron (nucleic acid)
chain: GGCTCCGTGGCGCAATGGATAGCGCATTGGACTTCAAATTCAAAGGTTCCGGGTTCGAGTCCCGGCGGAGTCG
modifications: chemistry not fully specified
- readthrough activity when combined with the identified leader sequences: showed high readthrough activity
